Results: patent publication US20120251547A1 (Amgen, published 2012)

Legend:
[1] = biological target: T1, human IL-17RA, full-length, on cells (human, UniProt Q96F46 33-866); experiment: cell-based or functional assay
chimera F [2] = biological target: T2, chimera F; experiment: Bio-Plex titration on His-captured chimera;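 further: binding of anti-IL-17RA antibodies (4-fold titration across about 5 logs, 1 h) to His-captured IL-17RA chimeras on multiplexed beads, MFI read as percent of maximal wild-type human IL-17RA signal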
T2 construct: human IL-17RA extracellular domain with mouse Domain F; column head 229-319; also called Construct F
Method: (§1) Twelve bead codes of pentaHis-coated beads (Qiagen, Valencia, Calif.; see wwwl.qiagen.com) were used to capture histidine-tagged protein. The 12 bead codes allowed the multiplexing of 11 chimeric and the wild type human IL-17RA.
(§2) The beads were washed as per the manufacturer's protocol and the 12 bead set was pooled and aliquoted into 2 or 3 columns of a 96-well filter plate (Millipore, Billerica, Mass., product #MSBVN1250) for duplicate or triplicate assay points, respectively. 100 ul anti-IL-17RA antibodies in 4-fold dilutions were added to the wells, incubated for 1 hour at room temperature, and washed. […] Beads were resuspended in 1% BSA, shaken for 3 minutes, and read on the Bio-Plex workstation. Antibody binding to IL-17RA chimeric protein was compared to antibody binding to the human IL-17RA wild-type from the same pool. A titration of antibody over approximately a 5 log scale was performed. Median Fluorescence Intensity (MFI) of chimeric proteins was graphed as a percent of maximum wild-type human IL-17RA signal.

chimera M [3] = biological target: T3, chimera M; experiment: Bio-Plex titration on His-captured chimera;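 further: binding of anti-IL-17RA antibodies (4-fold titration across about 5 logs, 1 h) to His-captured IL-17RA chimeras on multiplexed beads, MFI read as percent of maximal wild-type human IL-17RA signal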
T3 construct: human IL-17RA extracellular domain with mouse Domains C and F; also called Construct M
Method: as §1, §2

chimera K [4] = biological target: T4, chimera K; experiment: Bio-Plex titration on His-captured chimera;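 further: binding of anti-IL-17RA antibodies (4-fold titration across about 5 logs, 1 h) to His-captured IL-17RA chimeras on multiplexed beads, MFI read as percent of maximal wild-type human IL-17RA signal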
T4 construct: human IL-17RA extracellular domain with mouse Domains A and F; also called Construct K
Method: as §1, §2

huIL-17RA-FLAG-polyHis [5] = biological target: T5, huIL-17RA-FLAG-polyHis (human, UniProt Q96F46 33-320); experiment: binning; IL-17RA held by bead mAb K
T5 construct: also called IL-17RA-FLAG-pHis; wild-type IL-17RA
Method: (§3) The method employed the Bio-Plex Workstation and software (BioRad, Hercules, Calif.), as well as reagents from Luminex® Corp. (Austin, Tex.). […] The mouse-anti-human IgG coating was evaluated and the beads quantified by FACS. Each bead code was separately incubated with 10 ul of anti-IL-17RA antibody for 1 hour at room temperature and then washed. The beads were pooled and then dispensed to a 96-well filter plate (Millipore, Billerica, Mass., product #MSBVN1250). […] The PE-tagged monovalent antibody will detect the presence of the second mAb added to the well, but not the first mAb captured by the monovalent mouse-anti-human IgG antibody. Beads were resuspended in 120u1 PBSAT and at least 100 events/bead code were collected on the Bio-Plex workstation as per the manufacturer's recommended protocol.

huIL-17RA-FLAG-polyHis [6] = biological target: T5, huIL-17RA-FLAG-polyHis; experiment: binning; IL-17RA held by bead mAb C
Method: as §3

[7] = biological target: T6, cynomolgus IL-17RA, on cells (cynomolgus); experiment: FACS competition: non-clonal supernatant inhibiting biotin-huIL-17A (competitor) binding to cyno IL-17RA+ CHO cells
T6 construct: whole, on cells; also called CHO-cynoIL-17RA; cyno IL-17RA+ CHO cells
Method: The anti-IL-17RA antibodies were characterized. Non-clonal hybridoma supernatants were prepared in volumes of 1-2 mls (the Ig concentrations were not determined for these supernatants).

D152R IL-17RA mutant = D152R IL-17RA mutant (human, UniProt Q96F46 33-320); experiment: Bio-Plex titration on His-captured D152R mutant
Method: Twelve bead codes of pentaHis-coated beads (Qiagen, Valencia, Calif.; see wwwl.qiagen.com) were used to capture histidine-tagged protein.
To prepare the beads, 100 ul of wild-type IL-17RA and IL-17RA arginine mutant supernatants from transient expression culture were bound to penta-His-coated beads overnight at 4° C. or 2 hours at room temperature with vigorous shaking. The beads were washed as per the manufacturer's protocol and the 12 bead set was pooled and aliquoted into 2 or 3 columns of a 96-well filter plate (Millipore, Bellerica, Mass., product #MSBVN1250) for duplicate or triplicate assay points, respectively. 100 ul anti-IL-17RA antibodies in 4-fold dilutions were added to the wells, incubated for 1 hour at room temperature, and washed. […] Beads were resuspended in 1% BSA, shaken for 3 minutes, and read on the Bio-Plex workstation. Antibody binding to IL-17RA arginine mutant protein was compared to antibody binding to the human IL-17RA wild-type from the same pool. A titration of antibody over approximately a 5 log scale was performed.

huIL-17RA-FLAG-polyHis [8] = biological target: T5, huIL-17RA-FLAG-polyHis; experiment: Bio-Plex, His-tagged wild-type huIL-17RA on pentaHis beads, antibody titration, PE anti-human IgG Fc
Method: as §1, §2

huIL-17RA-FLAG-polyHis [9] = biological target: T5, huIL-17RA-FLAG-polyHis; experiment: binning; IL-17RA held by bead mAb H
muIL-17RA-FLAG-polyHis = biological target: T7, muIL-17RA-FLAG-polyHis (mouse, UniProt Q60943 32-322); experiment: Bio-Plex, His-tagged muIL-17RA on pentaHis beads, antibody titration
T7 construct: also called mouse IL-17RA; mu WT
T7 sequence (Q60943 32-322 limits assumed): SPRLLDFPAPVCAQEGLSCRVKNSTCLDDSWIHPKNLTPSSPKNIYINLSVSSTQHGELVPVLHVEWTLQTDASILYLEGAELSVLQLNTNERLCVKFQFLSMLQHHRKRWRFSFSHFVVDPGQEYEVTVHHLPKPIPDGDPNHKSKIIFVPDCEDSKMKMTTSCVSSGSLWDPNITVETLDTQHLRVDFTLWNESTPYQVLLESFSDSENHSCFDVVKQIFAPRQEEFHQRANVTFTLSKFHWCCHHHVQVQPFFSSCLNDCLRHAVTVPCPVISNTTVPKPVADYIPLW

chimera J = biological target: T8, chimera J; experiment: Bio-Plex titration on His-captured chimera;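 further: binding of anti-IL-17RA antibodies (4-fold titration across about 5 logs, 1 h) to His-captured IL-17RA chimeras on multiplexed beads, MFI read as percent of maximal wild-type human IL-17RA signal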
T8 construct: human IL-17RA extracellular domain with mouse Domains D and E; column head D+E; also called Construct J
Method: as §1, §2

chimera D = biological target: T9, chimera D; experiment: Bio-Plex titration on His-captured chimera
T9 construct: human IL-17RA extracellular domain with mouse Domain D; column head 176-197; also called Construct D
Method: as §1, §2
T9 IL-17RA extracellular domain with FLAG-polyHis tag: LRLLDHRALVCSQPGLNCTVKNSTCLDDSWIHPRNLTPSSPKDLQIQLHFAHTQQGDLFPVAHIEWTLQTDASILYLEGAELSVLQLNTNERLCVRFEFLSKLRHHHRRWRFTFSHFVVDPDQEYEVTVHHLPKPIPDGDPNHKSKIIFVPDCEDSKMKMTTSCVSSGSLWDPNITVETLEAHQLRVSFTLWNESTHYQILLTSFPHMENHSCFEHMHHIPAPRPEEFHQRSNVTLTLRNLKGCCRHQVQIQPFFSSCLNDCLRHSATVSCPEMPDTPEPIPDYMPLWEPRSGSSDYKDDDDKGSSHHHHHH

chimera L = biological target: T10, chimera L; experiment: Bio-Plex titration on His-captured chimera; cell bold in heavy box (shaded: lost binding)
T10 construct: human IL-17RA extracellular domain with mouse Domains B and F; B+F; also called Construct L
Method: as §1, §2

chimera M [10] = biological target: T3, chimera M; experiment: as above
Method: as §1, §2

chimera K [11] = biological target: T4, chimera K; experiment: as above
Method: as §1, §2

huIL-17RA-FLAG-polyHis [12] = biological target: T5, huIL-17RA-FLAG-polyHis; experiment: SPR Biacore 3000, mAb captured on anti-human IgG CM4 chip, soluble huIL-17RA-FLAG-polyHis as analyte, 25 C, 1:1 model
Method: In vitro binding of IL-17RA mAbs was assayed. The binding affinities of IL-17RA antibodies were measured by surface plasmon resonance using a Biacore 3000® instrument by standard methods known in the art. Antibody candidates were captured on CM4 chips derivatized with goat anti-human IgG (H+ L) antibody (Jackson Immuno Research, Bar Harbor, Me.). A CM4 chip coated with goat anti-human IgG (H+ L) antibody but without captured antibody was used as a reference.
Experiments were conducted at 25° C. using a 50 uL/min flow rate. Data was fit to a 1:1 Model+Local Rmax using BIAeval Software® (v4.1).

[13] = biological target: T1, human IL-17RA, full-length, on cells; experiment: cell-based or functional assay; remark: listed apart in the source
chimera F [14] = biological target: T2, chimera F; experiment: Bio-Plex titration on His-captured chimera; cell not bold in the scan
Method: as §1, §2

B1: AMH21/AML21 (antibody, IgG2, V domains shown)
VH: EVQLVESGGGSVQPGGSLRLSCAASGFTFSSYSMNWVRQAPGKGLEWVSIISSRSSIIHYADSVKGRFTISRDNAKNSLYLQMNSLRDEDTAVYYCARPKVGGGMDVWGQGTTVTVSS
VL: DIQMTQSPSSLSASVGDRVTITCRASQGISNYLAWYQQKPGKFPELLIYAASTLQSGVPSRFSGSGSGTDFTLTISSLQPEDVATYYCQKYNRAPFTFGPGTKVDIK
notes: human mAb from IgG2 XenoMouse mice; also called AM-21; antibody Q
IL-17A/HFF bioassay IC50, subclone 4 [1]: 2.3 nM | IL-17A/HFF bioassay IC50, subclone 5 [1]: 3.1 nM | IL-17A/HFF bioassay IC50, subclone 6 [1]: 3.3 nM | EC50 (chimera F [2]): 0.026 nM | EC50 (chimera M [3]): 0.035 nM | EC50 (chimera K [4]): 0.017 nM | normalized MFI (huIL-17RA-FLAG-polyHis [5]): -181 | normalized MFI (huIL-17RA-FLAG-polyHis [6]): 4770 | MFI [7]: 6 | binding result (D152R IL-17RA mutant): no binding (tested: log [Ab] about 0.5 (about 3 nM)) | EC50 (huIL-17RA-FLAG-polyHis [8]): 0.018 nM | normalized MFI (huIL-17RA-FLAG-polyHis [9]): 10200

B2: AMH20/AML20 (antibody, IgG2, V domains shown)
VH: EVQLVESGGGLVQPGGSLRLSCAASGFTFSSYSMNWVRQAPGKGLEWVSFISARSSTIYYADSVKGRFTISRDNAKNSLYLQMNSLRDEDTAVYYCARPKVGGGMDVWGQGTTVTVSS
VL: DIQMTQSPSSLSASVGDRVTITCRASQGISNYLAWYQQKPGKFPELLIYAASTLQSGVPSRFSGSGSGTDFTLTISSLQPEDVATYYCQKYNRAPFTFGPGTKVDIK
notes: human mAb from IgG2 XenoMouse mice; also called AM-20; antibody R
IL-17A/HFF bioassay IC50, subclone 7 [1]: 8.1 nM | IL-17A/HFF bioassay IC50, subclone 8 [1]: 6.6 nM | IL-17A/HFF bioassay IC50, subclone 9 [1]: 6.7 nM | EC50 (chimera F [2]): 0.029 nM | EC50 (chimera M [3]): 0.04 nM | EC50 (chimera K [4]): 0.022 nM | normalized MFI (huIL-17RA-FLAG-polyHis [5]): -29 | normalized MFI (huIL-17RA-FLAG-polyHis [6]): 2990 | binding result (D152R IL-17RA mutant): no binding (tested: log [Ab] about 0.5 (about 3 nM)) | EC50 (huIL-17RA-FLAG-polyHis [8]): 0.022 nM | normalized MFI (huIL-17RA-FLAG-polyHis [9]): 8300

B3: AMH18/AML18 (antibody, IgG2, V domains shown)
VH: QVQLVQSGAEVKKPGASVKVSCKASGYSFTDYYMHWVRQAPGQGLEWMGWMHPNSGGTDLAQRFQGRVTMTRDTSISTAYMELSRLRSDDTAVYYCARGGYCSTLSCSFYWYFDLWGRGTLVTVSS
VL: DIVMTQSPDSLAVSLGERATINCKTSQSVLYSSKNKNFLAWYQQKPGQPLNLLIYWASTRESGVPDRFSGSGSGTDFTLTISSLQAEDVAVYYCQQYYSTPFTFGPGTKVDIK
notes: human mAb from IgG2 XenoMouse mice; also called AM-18; antibody G
binding result (muIL-17RA-FLAG-polyHis): no binding | IL-17A/HFF bioassay IC50, subclone 14 [1]: 0.44 nM | IL-17A/HFF bioassay IC50, subclone 15 [1]: 0.4 nM | IL-17A/HFF bioassay IC50, subclone 16 [1]: 0.17 nM | EC50 (chimera J): 0.064 nM | EC50 (chimera D): 0.059 nM | EC50 cell printed as zero (binding ablated) (chimera L): 0 nM | EC50 (chimera M [10]): 1.55 nM | EC50 (chimera K [11]): 31.3 nM | normalized MFI (huIL-17RA-FLAG-polyHis [5]): 8970 | Ka (huIL-17RA-FLAG-polyHis [12]): 1.01e+08 M⁻¹ | Kd (huIL-17RA-FLAG-polyHis [12]): 9.88 nM | koff (huIL-17RA-FLAG-polyHis [12]): 0.00101 s⁻¹ | kon (huIL-17RA-FLAG-polyHis [12]): 102000 M⁻¹ s⁻¹ | normalized MFI (huIL-17RA-FLAG-polyHis [6]): 354 | IL-17A/HFF IC50 [13]: 0.33 nM | IL-17A/lung fibroblast IC50 [13]: 0.081 nM | IL-17F/HFF IC50 [13]: 0.073 nM | EC50 (chimera F [14]): 3100 nM | EC50 (read off the curve) (D152R IL-17RA mutant): ~0.07 nM | EC50 (huIL-17RA-FLAG-polyHis [8]): 0.061 nM | normalized MFI (huIL-17RA-FLAG-polyHis [9]): 4000
